# Laboratory results as given in IntAct's records for PubMed 14675534.
# B1: Partitioning defective protein 3 (Caenorhabditis elegans), Q17353 (parent)
# chain: MSASSTSSSSTSCPEGGEPSGSCKSSDEGESTLKKRMQQYGIASGYANSSISTLDRSQYQSLPLNGTRRVTVQFGRMKIVVPWKESDQTVGQLADAALLRYKKARGMANEDRIHVHRLECASDGGILDMDDVLEEVFDLNYDQILAITDEANGGSTTPTYSQIQKQQHHYAQPLPYARKFDGGPSTPIASAFGSVTVNHQAHRAASPYNVGFARSNSRDFAPQPTHSKERRDSVVEVSSFDQIPQSGLRVSTPKPSRQSEDVIDGKPMNQPILRSSLRTEASGSRTEEATPVKQSRVTLSPEVEKKLAEQDERKSERRKHYDKNPGRFARGSDRKSRITDALLDARDRIADQLESQNPAEETKSQMIRVKIDQGPMPGTSLVTFPPIPEKSENEKQLGIEVNAVFDESSELPGTSEPTKLSSVQIMKIEDGGRIAKDGRIRVGDCIVAIDGKPVDQMSIIRVRASISDLAAVTSRPVTLIINRSLESFLEQESSAKPIQSALQQANTQYIGHTTVVELIKSSNGFGFTVTGRETAKGERLFYIGTVKPYGVALGHLKSGDRLLEINGTPTGQWTQSEIVEKLKETMVGEKIKFLVSRVSQSAIMSTSASSENKENEETLKVVEEEKIPQKLPLPALMTPPVPKDTPALSPSGASRFEIVIPFINGSSSAGLGVSLKARVSKKSNGSKVDCGIFIKNVMHGGAAFKEGGLRVDDRIVGVEDIDLEPLDNREAQAALAKKLKEVGMISSNVRLTISRYNECNPGQISRDLSRITVDASSPSPSSRMSSHTAPDSLLPSPATRGTSSSGADSSHSRQSSASSAVPAVPARLTERDSIVSDGTSRNDESELPDSADPFNREGLGRKSLSEKRGMGAAADPQHIKLFQDIKHQRQNSAPTSSTQKRSKSQPRSSSQRNYRSPMKLVDLPTTAAASASTNSQNLDDSDMLNRRSQSMESINRPVESILRGTGQIPTGSSSKVQFMQAASPDQHPFPPGAALLRLKNEESRSRDKSRRKSMGNPFSAMRNFFGFGSKSRDASPEKTPTESVQLRSVERPKSIIDERNNGSSERAPPPLPPHQSQRRGSGGNVFVDYGEPYGLIPQYPHNTTSGYESYADSELYDRYAAHRYHPRGGPIIDEDEYIYRQQSTSGNSPINTSSYVNYGLPASNAYHVGSRIPPQTSSGSISKTSGAMRRVYPAEYDEDVAYHQQIPQQSTRYQQGSGSGRGNADYHHMFNSWFAYTGGGAVGAAPVIKSSYGSSPVRIAAASAIERGESFVVEPVSGSSASATDRRGRSTSSGAVASGSSSTGFQYAAKEKYADARSGKFNGGSTRLFIPRHGGGLSAAAFATNFGGEAYETRGGGAGGSPSQYRRRDQGPPHRFPQY
# partner: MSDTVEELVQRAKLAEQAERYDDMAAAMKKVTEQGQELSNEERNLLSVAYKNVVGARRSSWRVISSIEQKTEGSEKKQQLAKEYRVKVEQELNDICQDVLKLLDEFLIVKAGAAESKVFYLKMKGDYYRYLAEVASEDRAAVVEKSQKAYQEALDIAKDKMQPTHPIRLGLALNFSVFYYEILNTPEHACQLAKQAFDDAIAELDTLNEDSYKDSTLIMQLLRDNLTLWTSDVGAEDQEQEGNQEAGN
# Variants of: B1
# Settings: with 14331_caeel par-5, P41932
row,effect of a mutation on the interaction,Variant
1,decreasing interaction,S960A
